According to patent US20100029568A1, “TIGHTER-BINDING C-PEPTIDE INHIBITORS OF HIV-1 ENTRY” (priority 2007, published 2010):

How the values were obtained:
[1] = target: Res 4 (SDTV) Env from HIV-1 strain HXB2 (HIV-1 strain HXB2) (UniProt P04578); assay: cell-based or functional assay
[2] = target: wild type Env (gp120/gp41) from HIV-1 strain HXB2 (HIV-1 strain HXB2) (UniProt P04578); assay: cell-based or functional assay

T20 (peptide) was tested, and the IC50, nM; inhibitory potency against pseudotyped HIV-1 [1] was 900 nM and the IC50, nM; inhibitory potency against pseudotyped HIV-1 [2] was 2.3 nM.
